What was measured:
IL-4R with mouse Fc-tag = target: T1, IL-4R with mouse Fc-tag (human, UniProt P24394 26-232); assay: competitive ELISA: antibody dilutions with 0.5 µg/mL IL-4R-mouse Fc on plate-captured biotinylated IL-4, anti-mouse-Fc-HRP
T1 construct: not shown: mouse Fc-tag
Description: Competitive ELISA: The second assay was designed to identify the anti-IL-4Rα antibodies that were capable of inhibiting the binding of hIL-4 to hIL-4Rα, as measured by competitive ELISA. Briefly, a 96-well plate was coated with 100 μL, 2.5 μg/mL SA (Streptavidin) solution, and incubated overnight at 4° C., followed by washed with TBST. Biotinylated IL-4 with the final concentration of 2 μg/mL was added into the plate and incubated at 37° C. for 1 hour. Then the plate was washed with TBST. The anti-IL-4Rα antibody samples were first diluted to 10 μg/mL, and 1004, of the sample was added to the first row of wells. 10 μg/mL anti-IL-4Rα antibody samples were then serially diluted at a 1:2 ratio and added to each of the remaining rows of wells. 504 of 0.5 μg/mL IL-4R with mouse Fc-tag was added to each well. After incubating for 1 hour at 37° C., the wells were washed with TBST 6 times. 100 µL of anti-mouse-Fc-HRP (1:10,000) was then added to each well and incubated for 1 hour at 37° C. The wells were washed with TBST 6 times before adding 1004/well of TMB, and incubated for 5-10 minutes at 37° C. 2M H₂SO₄ was used to stop the reaction. The ELISA results (OD450) were read, and the binding curves were generated by GraphPad Prism 5 software (GraphPad Software). Reference antibody Dupilumab (Regeneron, anti-IL-4Rα antibody) and AMG317 (Amgen, anti-IL-4Rα antibody) were used as positive controls, Human IgG4, kappa Isotype Control (Cat #HG4K, Sino Biological Inc.) was used as negative control, abbreviated as Human IgG4 in FIG. 1.

human IL-4Rα on cells = human IL-4Rα on cells (human, UniProt P24394 26-825); assay: cell-based or functional assay

IC50 (IL-4R with mouse Fc-tag): 0.0891 µg/mL
IC50(nM), neutralization of hIL-13 (4 ng/ml), HEK-Blue IL-4/IL-13 STAT6-SEAP reporter cells (human IL-4Rα on cells): 0.649 nM
Substance: AMG317 (antibody)

From patent US20230374144A1 (STAIDSON BEIJING BIOPHARMACEUTICAL, published 2023)
